Experimental data taken from US20250066499A1 (SUNSHINE GUOJIAN PHARMACEUTICAL SHANGHAI, published 2025).

Columns and labels:
CD73-ND-his [1] = molecular target: T1, CD73-ND-his (human, UniProt P21589 27-317); assay: ELISA, high plateau value (OD 450 nm)
T1 construct: Biotinylated and captured on streptavidin in the ELISA
T1 sequence: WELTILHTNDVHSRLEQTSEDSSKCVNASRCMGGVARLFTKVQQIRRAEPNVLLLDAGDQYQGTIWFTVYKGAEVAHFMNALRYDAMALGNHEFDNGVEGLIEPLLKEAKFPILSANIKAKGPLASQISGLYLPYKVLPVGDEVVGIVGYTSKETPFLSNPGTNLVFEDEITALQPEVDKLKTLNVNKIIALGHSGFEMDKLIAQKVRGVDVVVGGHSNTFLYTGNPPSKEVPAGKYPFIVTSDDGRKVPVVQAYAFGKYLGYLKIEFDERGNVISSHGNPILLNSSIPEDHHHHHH
Description: (§1) The ELISA plates were coated with SA protein diluted to 1.5 μg/mL in coating buffer (50 mM carbonate coating buffer, pH 9.6) and incubated overnight at 4° C. The supernatant was discarded, and the plates were washed three times with PBST. Then, 5% skimmed milk powder prepared with PBS was added for blocking and the plates were incubated for 2 h at 37° C. After washing the plates once with PBST, CD73-biotin protein (prepared by biotinylating CD73-His protein according to the EZ-Link NHS-Biotin Reagent instructions) was diluted to 0.5 μg/mL and added at 100 μL/well for incubation at room temperature for 1 h. The plates were washed three times with PBST, and the prepared murine-derived monoclonal antibodies against human CD73 were serially diluted with 1% BSA buffer prepared with PBST and added to the ELISA plates at 100 μl/well. The plates were incubated at 37° C. for 1 h. After washing the plates three times with PBST, HRP-labeled goat anti-mouse IgG secondary antibody was added and the plates were incubated for 30 min at 37° C. After washing the plates three times with PBST, the residual droplets were patted dry on absorbent paper as much as possible. Then, 100 μl of TMB color developing solution was added to each well, and the plates were incubated in the dark at room temperature for 5 min for color development. Subsequently, 50 μl of 2M H₂SO₄ stop solution was added to each well to terminate the substrate reaction. The OD values were read at 450 nm using a multimode microplate reader to analyze the binding ability of the tested antibodies to the target antigen human CD73-His.
(§2) Referring to the experimental method in Example 3, the affinity of 48A11-HuV33 for various mutant proteins of CD73-ND was determined. The SA protein was diluted to 1 μg/mL for coating the ELISA plates, and the biotinylated CD73 protein (CD73-biotin) was used at a concentration of 0.1 μg/mL.

CD73-ND-V186A [2] = molecular target: T2, CD73-ND-V186A (human, UniProt P21589 27-317); assay: ELISA, high plateau value (OD 450 nm)
T2 construct: Alanine mutant of CD73-ND
T2 sequence: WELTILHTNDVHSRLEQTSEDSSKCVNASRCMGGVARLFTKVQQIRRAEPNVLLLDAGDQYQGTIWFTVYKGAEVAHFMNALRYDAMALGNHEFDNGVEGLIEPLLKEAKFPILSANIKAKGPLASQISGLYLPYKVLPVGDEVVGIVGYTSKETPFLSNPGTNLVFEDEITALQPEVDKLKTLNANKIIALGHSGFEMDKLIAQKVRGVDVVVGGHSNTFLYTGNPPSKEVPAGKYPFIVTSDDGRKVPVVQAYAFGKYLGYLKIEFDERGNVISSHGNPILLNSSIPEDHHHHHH
Description: as §1, §2

CD73-ND-N187A [3] = molecular target: T3, CD73-ND-N187A (human, UniProt P21589 27-317); assay: ELISA, high plateau value (OD 450 nm)
T3 construct: Alanine mutant of CD73-ND
T3 sequence: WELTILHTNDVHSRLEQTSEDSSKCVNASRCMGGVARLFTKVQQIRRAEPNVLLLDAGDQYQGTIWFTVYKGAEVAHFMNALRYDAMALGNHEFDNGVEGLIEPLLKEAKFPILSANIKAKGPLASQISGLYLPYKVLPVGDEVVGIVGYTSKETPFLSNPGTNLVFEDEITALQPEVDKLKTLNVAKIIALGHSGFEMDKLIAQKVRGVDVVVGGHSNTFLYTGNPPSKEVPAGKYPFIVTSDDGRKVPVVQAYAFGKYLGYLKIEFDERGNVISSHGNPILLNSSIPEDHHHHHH
Description: as §1, §2

CD73-ND-his [4] = molecular target: T1, CD73-ND-his; assay: ELISA, biotinylated antigen on streptavidin plate
Description: as §1, §2

CD73-ND-V140A = molecular target: T4, CD73-ND-V140A (human, UniProt P21589 27-317); assay: ELISA, biotinylated antigen on streptavidin plate
T4 construct: Alanine mutant of CD73-ND
T4 sequence: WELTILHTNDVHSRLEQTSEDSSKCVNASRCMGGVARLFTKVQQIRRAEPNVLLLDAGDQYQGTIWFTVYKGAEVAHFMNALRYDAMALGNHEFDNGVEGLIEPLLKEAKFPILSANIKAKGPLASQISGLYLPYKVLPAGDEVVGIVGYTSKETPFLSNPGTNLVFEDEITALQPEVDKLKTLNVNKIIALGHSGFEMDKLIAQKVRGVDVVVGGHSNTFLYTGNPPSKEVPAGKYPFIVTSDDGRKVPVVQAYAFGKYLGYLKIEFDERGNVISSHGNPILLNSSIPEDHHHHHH
Description: as §1, §2

CD73-ND-his [5] = molecular target: T1, CD73-ND-his; assay: ELISA; decline multiple of Top against CD73-ND
Description: as §1, §2

CD73-ND-V186A [6] = molecular target: T2, CD73-ND-V186A; assay: ELISA; decline multiple of Top against CD73-ND
Description: as §1, §2

CD73-ND-N187A [7] = molecular target: T3, CD73-ND-N187A; assay: ELISA; decline multiple of Top against CD73-ND
Description: as §1, §2

CD73-ND-his [8] = molecular target: T1, CD73-ND-his; assay: ELISA; decline multiple of EC50 against CD73-ND
Description: as §1, §2

CD73-ND-V186A [9] = molecular target: T2, CD73-ND-V186A; assay: ELISA; decline multiple of EC50 against CD73-ND
Description: as §1, §2

CD73-ND-N187A [10] = molecular target: T3, CD73-ND-N187A; assay: ELISA; decline multiple of EC50 against CD73-ND
Description: as §1, §2

B1: 48A11-HuV33 (antibody, human IgG4, V domains shown)
VH: QVQLVQSGAEVKKPGASVKVSCKASGYTFTSYWMHWVRQAPGQGLEWIGEINPSIGRTNYNEKFKSRVTLTRDTSTSTAYMELSSLRSEDTAVYYCARRVYGTMDYWGQGTLVTVSS
VL: DIQMTQSPSSLSASVGDRVTITCKASQDINSYLSWFQQKPGKSPKLLIYRANIWVDGVPSRFSGSGSGQDYTFTISSLQPEDIATYYCLQYDELYTFGQGTKVEIK
notes: Humanized
Top (CD73-ND-his [1]): 1.94 | Top (CD73-ND-V186A [2]): 1.62 | Top (CD73-ND-N187A [3]): 1.77 | EC50 (CD73-ND-his [4]): 0.178 nM | EC50 (CD73-ND-V140A): 0.098 nM | Ratio(Top) (CD73-ND-his [5]): 1 fold | Ratio(Top) (CD73-ND-V186A [6]): 1.2 fold | Ratio(Top) (CD73-ND-N187A [7]): 1.1 fold | Ratio(EC50) (CD73-ND-his [8]): 0.8 fold | Ratio(EC50) (CD73-ND-V186A [9]): 1.4 fold | Ratio(EC50) (CD73-ND-N187A [10]): 0.9 fold
